Here are results for ten molecules from patent US20250320305A1 (Hoffmann-La Roche, published 2025).

Positions count from the first letter of the chain named. In names and notes the source's numbering stands.

To fix the notation:
B1: P1AE0400, humanized anti-CD40 antibody VH2a/VL2a, huIgG1_LALA_PG (antibody, V domains shown)
VH: EVQLLESGGGLVQPGGSLRLSCAASGYSFTGYYIHWVRQAPGKGLEWVGRVIPNAGGTSYNQKFKGRFTISVDNSKNTAYLQMNSLRAEDTAVYYCAREGIYWWGQGTTVTVSS
VL: DIQMTQSPSSLSASVGDRVTITCRSSQSLVHSNGNTFLHWYQQKPGKAPKLLIYTVSNRFSGVPSRFSGSGSGTDFTLTISSLQPEDFATYFCSQTTHVPWTFGGGTKVEIKR
notes: also called VL2a/VH2a
B2: P1AE0404, humanized anti-CD40 antibody VH2a/VL2b, huIgG1_LALA_PG (antibody, V domains shown)
VH: B1 VH
VL: DIQMTQSPSSLSASVGDRVTITCRSSQSLVHSNGNTFLHWYQQKPGQSPKLLIYTVSNRFSGVPSRFSGSGSGTDFTLTISSLQPEDFATYFCSQTTHVPWTFGGGTKVEIK
notes: huIgG1 with effector silent Fc (P329G, L234A, L235A); also called VL2b/VH2a
B3: P1AE0401, humanized anti-CD40 antibody VH2b/VL2a, huIgG1_LALA_PG (antibody, V domains shown)
VH: B1 VH with G44S
VL: B2 VL with Q47K, S48A
notes: huIgG1 with effector silent Fc (P329G, L234A, L235A); also called VL2a/VH2b
B4: P1AE0403, humanized anti-CD40 antibody VH2d/VL2a, huIgG1_LALA_PG (antibody, V domains shown)
VH: B1 VH with N61G, Q62D, K63S, F64V
VL: B1 VL
notes: also called VL2a/VH2d
B5: P1AE0402, humanized anti-CD40 antibody VH2c/VL2a, huIgG1_LALA_PG (antibody, V domains shown)
VH: B1 VH with Q106H
VL: B2 VL with Q47K, S48A
notes: huIgG1 with effector silent Fc (P329G, L234A, L235A); also called VL2a/VH2c
B6: P1AE0406, humanized anti-CD40 antibody VH2c/VL2b, huIgG1_LALA_PG (antibody, V domains shown)
VH: B1 VH with Q106H
VL: B2 VL
notes: huIgG1 with effector silent Fc (P329G, L234A, L235A); also called VL2b/VH2c
B7: P1AE0405, humanized anti-CD40 antibody VH2b/VL2b, huIgG1_LALA_PG (antibody, V domains shown)
VH: B1 VH with G44S
VL: B2 VL
notes: huIgG1 with effector silent Fc (P329G, L234A, L235A); also called VL2b/VH2b
B8: P1AE0407, humanized anti-CD40 antibody VH2d/VL2b, huIgG1_LALA_PG (antibody, V domains shown)
VH: B1 VH with N61G, Q62D, K63S, F64V
VL: B2 VL
notes: huIgG1 with effector silent Fc (P329G, L234A, L235A); also called VL2b/VH2d
B9: P1AE0817, humanized anti-CD40 antibody VH1a/VL1a, huIgG1_LALA_PG (antibody, V domains shown)
VH: QVQLVQSGAEVKKPGASVKVSCKASGYSFTGYYIHWVRQAPGQSLEWMGRVIPNAGGTSYNQKFKGRVTLTVDKSISTAYMELSRLRSDDTAVYYCAREGIYWWGQGTTVTVSS
VL: DIVMTQTPLSLSVTPGQPASISCRSSQSLVHSNGNTFLHWYLQKPGQSPQLLIYTVSNRFSGVPDRFSGSGSGTDFTLKISRVEAEDVGVYFCSQTTHVPWTFGGGTKVEIKR
B10: P1AE0993, humanized anti-CD40 antibody VH1a/VL1c, huIgG1_LALA_PG (antibody, V domains shown)
VH: B9 VH
VL: DVVVTQTPLSLSVTPGQPASISCRSSQSLVHSNGNTFLHWYLQKPGQSPQLLIYTVSNRFSGVPDRFSGSGSGTDFTLKISRVEAEDVGVYFCSQTTHVPWTFGGGTKVEIK
notes: huIgG1 with effector silent Fc (P329G, L234A, L235A)

The target of one experiment is T1, human CD40 expressed on cells (human, UniProt P25942 21-277).
T1 construct: also called huCD40; Raji cells
Briefly: flow cytometry, Raji cells.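 Also: cell binding of antibodies to Raji cells detected by flow cytometry using an Alexa488-labelled anti-human IgG secondary antibody, primary incubation 1 h at 4 °C.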 On the technique in general: Flow cytometry measures light scatter and fluorescence of single cells or particles in a stream.
Experimental: CD40 positive cells (Raji cells) were detatched from the culture bottle using Trypsin and were counted using a Casy cell counter. After pelleting at 4° C., the cells were resuspended in FACS Buffer (2.5% FCS in PBS), adjusted to 2.0E+06 cells/mL, and dispensed to 96-well PP V-bottom-plates (25 μL/well=5.0E+04Zellen/well).
The CD40 specific antibodies were adjusted to 20 μg/mL in FACS buffer, resulting in a final concentration of 10 μg/mL. 20 μl were added to 25 μl cell suspension and incubated for 1 h at 4° C. The cells were then washed twice in FACS buffer. After washing, the cells were resuspended in 50 μL FACS-buffer containing secondary antibody (<huIgG>-Alexa488, c=10 μg/mL) and incubated 1 h bei 4° C. The cells were then washed twice in FACS buffer and resuspended in 70 μl/well FACS buffer for measurement using a FACS Canto (BD, Pharmingen).
As a reminder, the EC50 is the concentration needed to bring the measured effect to its halfway point. Higher therefore signals a less potent agent. In turn, B1 displayed an EC50 of 0.12 µg/mL.
B2 gave a 50% effective concentration (EC50) of 0.11 µg/mL.
Take B3: the response was half-maximal at 0.13 µg/mL (EC50).
Still for that read-out and setting: the same measure for B4: 0.12 µg/mL; for B5: 0.13 µg/mL.
B6: the response was half-maximal at 0.09 µg/mL (EC50).
For the molecule B7, the EC50 is 0.09 µg/mL.
On the same count and under the same terms, the same measure for B8: 0.12 µg/mL.
Same read-out and setting: the same measure for B9: 0.09 µg/mL; for B10: 0.13 µg/mL.

For the next experiment, the target named is T2, human CD40 extracellular domain with C-terminal His-AviTag (human, UniProt P25942 21-193).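 Also: biacore SPR at 25 °C in PBS-T pH 7.4, CD40 ECD analyte from 300 nM in 1:3 series, 300 s association, up to 1200 s dissociation, double-referenced, Langmuir 1:1 fit.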
T2 construct: not shown: C-terminal His-AviTag
The experiment in a line: SPR, antibody captured, CD40 ECD analyte. (SPR reads the build-up and loss of mass on a sensor chip optically.)
For orientation: Kd means a measure of binding affinity in units of concentration. A higher Kd goes with weaker binding. As a reminder, the koff is a measure of how fast the partners let go of each other. Higher therefore signals fast dissociation. A word on the kon: it is a measure of how fast the partners come together. Lower therefore signals slower complex formation. Regarding B1, the Kd is 4.2 nM, the koff is 0.00699 s⁻¹ and the kon was 1.68e+06 M⁻¹ s⁻¹.
For B2 the same measures were 4.2 nM, 0.00693 s⁻¹ and 1.63e+06 M⁻¹ s⁻¹.
For B3, in that order: 4.6 nM, 0.00787 s⁻¹ and 1.69e+06 M⁻¹ s⁻¹.
For B4, in that order: 29 nM, 0.0407 s⁻¹ and 1.4e+06 M⁻¹ s⁻¹.
Molecule B5 displayed a Kd of 4.2 nM, a dissociation rate constant (koff) of 0.00709 s⁻¹ and a kon of 1.67e+06 M⁻¹ s⁻¹.
In the case of B6, binding was characterised by a dissociation constant (Kd) of 4.2 nM, the off-rate constant (koff) is 0.00709 s⁻¹ and the kon was 1.67e+06 M⁻¹ s⁻¹.
For B7, in that order: 5.1 nM, 0.00814 s⁻¹ and 1.61e+06 M⁻¹ s⁻¹.
Molecule B8 came in with a Kd of 30 nM, a koff of 0.0355 s⁻¹ and an on-rate constant (kon) of 1.19e+06 M⁻¹ s⁻¹.
For B9, in that order: 2.5 nM, 0.00593 s⁻¹ and 2.4e+06 M⁻¹ s⁻¹.
For B10 the same measures were 3.4 nM, 0.00898 s⁻¹ and 2.68e+06 M⁻¹ s⁻¹.
